Experiment [1] has as its target LAG-3-hFc protein (human LAG-3 extracellular region with hFc tag) (human) (UniProt P18627). Kind of experiment: ELISA, inhibition of LSECtin-His binding to coated LAG-3-hFc, antibody 0.013 nM, replicate 1.
For experiment [2] the target is unchanged. Briefly: ELISA, inhibition of LSECtin-His binding to coated LAG-3-hFc, antibody 0.320 nM, replicate 1.
For experiment [3] the target is unchanged. Kind of experiment: ELISA, inhibition of LSECtin-His binding to coated LAG-3-hFc, antibody 200.000 nM, replicate 1. In general terms: In an ELISA, binding on a coated surface is turned into a signal by an enzyme label.
Experiment [4] concerns the target human LAG-3 on cells (HEK293-hLAG-3 stable cell line) (human) (UniProt P18627). Kind of experiment: FACS, HEK293-hLAG-3, antibody 0.32 nM. (In general: In flow cytometry, cells or beads pass a laser one at a time.)
Experiment [5] has the same target. Kind of experiment: cell-based or functional assay.
For experiment [6] the target is unchanged. Briefly: FACS, HEK293-hLAG-3, antibody 8 nM.
The target of experiment [7] is LAG-3-hFc protein (human LAG-3 extracellular region with hFc tag) (human) (UniProt P18627). Kind of experiment: ELISA, inhibition of LSECtin-His binding to coated LAG-3-hFc, antibody 0.000 nM, replicate 2.
In experiment [8] the target is T1, human LAG-3 ECD (antigen protein of the affinity test) (human, UniProt P18627 23-450).
T1 sequence: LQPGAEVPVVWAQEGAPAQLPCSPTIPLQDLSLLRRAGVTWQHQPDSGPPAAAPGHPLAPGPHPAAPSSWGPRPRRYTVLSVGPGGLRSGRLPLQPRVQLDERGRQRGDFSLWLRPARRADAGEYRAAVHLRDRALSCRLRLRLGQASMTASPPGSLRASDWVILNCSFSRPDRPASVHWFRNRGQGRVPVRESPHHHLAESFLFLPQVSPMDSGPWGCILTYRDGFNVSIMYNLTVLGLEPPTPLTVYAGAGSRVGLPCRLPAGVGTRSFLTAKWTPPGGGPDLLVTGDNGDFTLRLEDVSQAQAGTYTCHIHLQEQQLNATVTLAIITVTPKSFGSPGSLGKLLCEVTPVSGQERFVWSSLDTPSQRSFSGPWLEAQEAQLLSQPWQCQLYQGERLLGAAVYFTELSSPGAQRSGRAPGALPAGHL
Kind of experiment: SPR, CM5 chip, antibody captured by anti-human Fc IgG, antigen in flow, 1:1 fit. In a few lines:
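Antibody captured via anti-human Fc IgG on a CM5 chip (~100–300 RU); human LAG-3 ECD flowed at 30 ul/min, top concentration 100 nM plus dilution series, in HBS-EP+. Glycine pH 1.5 regeneration, blank-subtracted, global 1:1 fit; KD = kd/ka.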

The target in experiment [9] is T2, human LAG-3 on cells (HEK293-hLAG-3 stable cell line) (human, UniProt P18627 23-525).
T2 sequence: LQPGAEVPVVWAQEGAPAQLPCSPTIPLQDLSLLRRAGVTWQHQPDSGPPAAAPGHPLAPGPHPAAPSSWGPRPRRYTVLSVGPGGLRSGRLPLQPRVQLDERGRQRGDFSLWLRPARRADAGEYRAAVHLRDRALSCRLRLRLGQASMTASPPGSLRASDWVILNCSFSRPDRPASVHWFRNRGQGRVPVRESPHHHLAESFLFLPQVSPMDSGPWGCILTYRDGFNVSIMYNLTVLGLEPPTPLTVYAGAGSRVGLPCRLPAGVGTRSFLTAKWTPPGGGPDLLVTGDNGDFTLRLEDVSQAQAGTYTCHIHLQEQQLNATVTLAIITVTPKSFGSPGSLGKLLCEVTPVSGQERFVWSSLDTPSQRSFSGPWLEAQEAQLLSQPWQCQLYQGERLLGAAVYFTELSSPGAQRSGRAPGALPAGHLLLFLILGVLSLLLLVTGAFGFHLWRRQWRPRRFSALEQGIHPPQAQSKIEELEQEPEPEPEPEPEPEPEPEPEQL
Kind of experiment: FACS, HEK293-hLAG-3, antibody 0.013 nM.

Experiment [10] deals with T2, human LAG-3 on cells (HEK293-hLAG-3 …). Kind of experiment: FACS, HEK293-hLAG-3, antibody 40 nM. The source says: A. The binding of antibodies to LAG-3 expressing cells was detected by Flow cytometry (FACS), wherein the method was according to that of Example 5.
Experiment [11] shares this target. Kind of experiment: FACS, HEK293-hLAG-3, antibody 1.6 nM.

hIgG control (antibody): in [1], the Inhibition rate (%) was -12.9%. Further, the Inhibition rate (%) in experiment [2] is -7.9%. Moreover, in experiment [3], the Inhibition rate (%) came out at 2.6%. In [4], the Mean fluorescence intensity turned out to be 4. In addition, in [5], the IL-2 production, SEB-dependent PBMC stimulation test, 0.0032 ug/ml, N = 1 amounted to 1620 pg/mL; the IL-2 production, SEB-dependent PBMC stimulation test, 0.0032 ug/ml, N = 2 came to 1590 pg/mL; the IL-2 production, SEB-dependent PBMC stimulation test, 0.016 ug/ml, N = 1 turned out to be 1220 pg/mL; the IL-2 production, SEB-dependent PBMC stimulation test, 0.016 ug/ml, N = 2 turned out to be 1660 pg/mL. In experiment [5], this molecule showed an IL-2 production, SEB-dependent PBMC stimulation test, 0.08 ug/ml, N = 1 of 1020 pg/mL; an IL-2 production, SEB-dependent PBMC stimulation test, 0.08 ug/ml, N = 2 of 1650 pg/mL; an IL-2 production, SEB-dependent PBMC stimulation test, 0.4 ug/ml, N = 1 of 1060 pg/mL; an IL-2 production, SEB-dependent PBMC stimulation test, 0.4 ug/ml, N = 2 of 1680 pg/mL. In [5], the IL-2 production, SEB-dependent PBMC stimulation test, 2 ug/ml, N = 1 came to 1130 pg/mL; the IL-2 production, SEB-dependent PBMC stimulation test, 2 ug/ml, N = 2 worked out at 1630 pg/mL; the IL-2 production, SEB-dependent PBMC stimulation test, 10 ug/ml, N = 1 was 1280 pg/mL; the IL-2 production, SEB-dependent PBMC stimulation test, 10 ug/ml, N = 2 worked out at 1490 pg/mL. Moreover, in experiment [5], the IL-2 production, antigen-specific T lymphocyte stimulation test, 0.016 ug/ml, N = 1 was 336 pg/mL; the IL-2 production, antigen-specific T lymphocyte stimulation test, 0.016 ug/ml, N = 2 is 298 pg/mL; the IL-2 production, antigen-specific T lymphocyte stimulation test, 0.08 ug/ml, N = 1 came out at 286 pg/mL; the IL-2 production, antigen-specific T lymphocyte stimulation test, 0.08 ug/ml, N = 2 came to 282 pg/mL. In [5], the IL-2 production, antigen-specific T lymphocyte stimulation test, 0.4 ug/ml, N = 1 worked out at 322 pg/mL; the IL-2 production, antigen-specific T lymphocyte stimulation test, 0.4 ug/ml, N = 2 turned out to be 286 pg/mL; the IL-2 production, antigen-specific T lymphocyte stimulation test, 2 ug/ml, N = 1 worked out at 382 pg/mL; the IL-2 production, antigen-specific T lymphocyte stimulation test, 2 ug/ml, N = 2 was 317 pg/mL. For the same molecule, in experiment [5], the IL-2 production, antigen-specific T lymphocyte stimulation test, 10 ug/ml, N = 1 amounted to 338 pg/mL and the IL-2 production, antigen-specific T lymphocyte stimulation test, 10 ug/ml, N = 2 was 277 pg/mL. The same molecule displayed a Mean fluorescence intensity in experiment [6] of 4. Further, the Inhibition rate (%) in experiment [7] is -3.6%.

B1: 556F6B8 mouse-human chimeric antibody (antibody, V domains shown)
VH: RVQLKQSGPGLVQPSQSLSITCTVSGFSLIKYGVHWVRQSPGEGLEWLGVIWRGGITDYNAAFMSRLSITKDNSKSQVFFKMNSLQADDTAIYYCAKWDGPLAMDYWGQGTSVTVSS
VL: DIVMTQSHKFLSTSVGDRVSITCKASQDVGTTVAWYQQKPGQSPKLLIYWASTRHTGVPDRFTGSGSGTDFTLTISNVQSEDLADYFCQQYSSYPYTFGGGTKLEIK
notes: also called mAb123-556F6B8; 556F8B8
Regarding B1, in [8], the Kd was determined as 3.39 nM, the koff is 0.000455 s⁻¹ and the kon is 134000 M⁻¹ s⁻¹. In [9], this molecule showed a Mean fluorescence intensity of 6.

B2: 405B8H3 mouse-human chimeric antibody (antibody, V domains shown)
VH: QVQLQQSGAELVRPGASVTLSCKASGYTFTDYEMHWVKQTPVHGLEWIGATDPETGNSAYNQKFKGKAIMTADKSSSTAYMELRSLTSEDSAVYYCISTGWNDWGQGTSLTVSS
VL: DIKMTQSPSSMYASLGERVTITCKASQDINSYLSWFQQKPGKSPKTLIYRADRLLDGVPSRFSGSGSGQDYSLTISSLEYGDMGIYYCLQYDEFPYTFGGGTKLEIK
notes: also called mAb103-405B8H3
Take B2: in [10], the Mean fluorescence intensity worked out at 266. For the same molecule, in experiment [8], the Kd stood at 2.58 nM, the koff was 0.000165 s⁻¹ and the kon was determined as 64000 M⁻¹ s⁻¹. Also, in [11], the Mean fluorescence intensity is 139.

Broadly, the Kd is the constant that tells how readily two partners part at equilibrium. By koff is commonly meant the first-order rate constant of dissociation. The kon is the second-order rate constant of association.

Values taken from US20210155689A1 (SHANGHAI PHARMAEXPLORER, published 2021).
